The data set deals with the molecule itself. Description: cryo-EM structure.

B1: AcrA, periplasmic membrane fusion protein of Escherichia coli (natural protein)
chain: CDDKQAQQGGQQMPAVGVVTVKTEPLQITTELPGRTSAYRIAEVRPQVSGIILKRNFKEGSDIEAGVSLYQIDPATYQATYDSAKGDLAKAQAAANIAQLTVNRYQKLLGTQYISKQEYDQALADAQQANAAVTAAKAAVETARINLAYTKVTSPISGRIGKSNVTEGALVQNGQATALATVQQLDPIYVDVTQSSNDFLRLKQELANGTLKQENGKAKVSLITSDGIKFPQDGTLEFSDVTVDQTTGSITLRAIFPNPDHTLLPGMFVRARLEEGLNPNAILVPQQGVTRTPRGDATVLVVGADDKVETRPIVASQAIGDKWLVTEGLKAGDRVVISGLQKVRPGVQVKAQEVTADNNQQAASGAQPEQSKS
What is called stoichiometry N is the number of molecules, sites or subunits per partner or assembly. For B1, the “stoichiometry N” value is 6 protomers.

For the origin of these results see publication PMC13095208, “Structural mechanisms of pump assembly and drug transport in the AcrAB–TolC efflux system” (eLife, 2026).
